We go through 33 molecules from patent publication US20170088610A1 (RINAT NEUROSCIENCE, published 2017).

Positions count from the first letter of the chain named. Read-outs that look alike come from different tables or passages of the source.

The target in test [1] is T1, human nerve growth factor (human, UniProt P01138 122-241).
T1 construct: Immobilised on CM5 chips for BIAcore, soluble in neuron survival assays; also called human NGF; hNGF
In words: BIAcore SPR screen, Fab over immobilised human NGF. As for the experimental part: (§1) A screening BIAcore assay was optimized to determine the affinity of Fab clones from libraries. Supernatants of small culture lysates were injected at […] for 2 min. Dissociation times of 10 to 15 minutes were used for determination of a single exponential dissociation rate (koff) using BIAevaluation software. […] Clones showing improved (slower) koff values were expressed at large scale and full kinetic parameters, kₒₙ and koff, were determined on purified protein.
(§2) 20-80 clones from each small library were screened using BIAcore analysis as described herein. Samples were simultaneously analyzed by BIAcore for binding affinity to NGF in one channel of the BIAcore chip and for presence of Fab by binding to a penta-histag antibody in another channel of the sensor chip, to detect the his tag at the C terminus of the heavy chain. Clones that expressed protein were classified as having the same affinity, worse affinity, better affinity or no binding, using koff to classify: The results of this analysis are shown in Table 5.
Background: SPR reads the build-up and loss of mass on a sensor chip optically.

Test [2] concerns the target T1, human nerve growth factor. Briefly: BIAcore SPR screen, Fab over immobilised human NGF; KD calculated from koff with kon 4e4 M-1s-1. The method, then: as §1, §2
For test [3], the target named is T1, human nerve growth factor. In words: BIAcore SPR screen, Fab over immobilised human NGF. As for the experimental part:
as §1
(§3) For affinity screening experiments, each library was further paired with the corresponding CDR-grafted light or heavy chain (for example, the H1/H2 library was paired with CDR-grafted light chain), the antibody was expressed, and affinity to human NGF of the individual clones was screened using the BIACORE surface plasmon resonance (SPR) system (BIAcore, Inc. Piscataway, N.J.) according to the manufacturer's instructions and as described above. koff, kₒₙ and KD were determined. Antibody clones were ranked based on koff rates, since generally most variation in affinity is seen in koff rates, and further because koff rates are independent of antibody concentration.
This is another data set of the same source.

In test [4] the target is T1, human nerve growth factor. In words: BIAcore SPR screen, Fab over immobilised human NGF; KD calculated from koff with kon 4e4 M-1s-1. The method, then: as §1, §3
This is another data set of the same source.

T1 sequence (P01138 122-241 limits assumed): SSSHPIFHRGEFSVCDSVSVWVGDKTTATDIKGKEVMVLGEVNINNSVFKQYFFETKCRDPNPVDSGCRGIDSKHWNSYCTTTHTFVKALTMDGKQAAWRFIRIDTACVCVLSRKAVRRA

B1: 8L2-6D5 Fab with CDR H3 mutation D109G (Fab, V domains shown)
VH: QVQLQESGPGLVKPSETLSLTCTVSGFSLIGYDINWIRQPPGKGLEWIGMIWGDGTTDYNSALKSRVTISKDTSKNQFSLKLSSVTAADTAVYYCARGGYYYGTSYYFGYWGQGTLVTVS
VL: DIQMTQSPSSLSASVGDRVTITCRASQDISNHLNWYQQKPGKAPKLLIYYISRFHSGVPSRFSGSGSGTDFTFTISSLQPEDIATYYCQQSKTLPYTFGQGTKLEIKR
notes: See note of m8
Turning to B1, the koff in test [1] stood at 0.001 s⁻¹. In test [2], the Kd is 25 nM.

B2: heavy chain library clone H109 (Fab, V domains shown)
VH: B1 VH with I34S, M50I, G109D
VL: B1 VL
notes: paired with the CDR-grafted light chain; See note of m8
B2 displayed an off-rate constant (koff) in test [3] of 0.00016 s⁻¹. Moreover, the Kd in test [4] is 4 nM.

B3: 8L2-6D5 Fab with CDR H3 mutation Y101W (Fab, V domains shown)
VH: B1 VH with Y101W, G109D
VL: B1 VL
notes: W101 is the E3 residue, so it is kept; See note of m8
Molecule B3 registered a koff in test [1] of 0.00056 s⁻¹. Besides, the Kd in test [2] is 14 nM.

B4: heavy chain library clone H9 (Fab, V domains shown)
VH: B1 VH with I34V, N35S, M50I, A62S, L63V, G109D
VL: B1 VL
notes: See note of m8
B4 yielded a koff in test [3] of 0.00041 s⁻¹. The Kd in test [4] is 10.2 nM.

B5: 8L2-6D5 Fab with CDR H3 mutation F108W (Fab, V domains shown)
VH: B1 VH with F108W, G109D
VL: B1 VL
notes: See note of m8
B5 had a koff in test [1] of 0.00122 s⁻¹. Moreover, in test [2], the dissociation constant Kd was 30 nM.

B6: heavy chain library clone H28 (Fab, V domains shown)
VH: B1 VH with I34S, N35T, M50S, G109D
VL: B1 VL
notes: See note of m8
In the case of B6, the koff in test [3] was 0.00075 s⁻¹. The Kd in test [4] is 18.7 nM.

B7: heavy chain library clone H227 (Fab, V domains shown)
VH: B1 VH with N35S, M50Q, A62S, L63V, G109D
VL: B1 VL
notes: See note of m8
B7 gave an off-rate constant (koff) in test [3] of 0.00054 s⁻¹. The Kd in test [4] is 13.5 nM.

B8: 8L2-6D5 Fab with CDR H3 mutation Y106R (Fab, V domains shown)
VH: B1 VH with Y106R, G109D
VL: B1 VL
notes: See note of m8
In test [1], B8 came in with a koff of 0.0016 s⁻¹. The Kd in test [2] is 40 nM.

B9: 8L2-6D5 Fab with CDR H3 mutation Y100R (Fab, V domains shown)
VH: B1 VH with Y100R, G109D
VL: B1 VL
notes: See note of m8
Consider B9, for which the koff in test [1] is 0.0011 s⁻¹. For the same molecule, the Kd in test [2] was 27 nM.

B10: light chain library clone L129 (Fab, V domains shown)
VH: B1 VH with G109D
VL: B1 VL with D28S, H32N, I51T
notes: paired with the CDR-grafted heavy chain; See note of m8
In turn, B10 gave a dissociation rate constant (koff) in test [3] of 0.00045 s⁻¹. For the same molecule, the Kd in test [4] is 11 nM.

B11: 8L2-6D5 Fab with CDR H3 mutation Y110S (Fab, V domains shown)
VH: B1 VH with G109D, Y110S
VL: B1 VL
notes: See note of m8
For B11, in test [1], the koff was 0.0015 s⁻¹. Also, in test [2], the dissociation constant (Kd) was 37 nM.

B12: 8L2-6D5 Fab with CDR H3 mutation Y110R (Fab, V domains shown)
VH: B1 VH with G109D, Y110R
VL: B1 VL
notes: See note of m8
Molecule B12 registered a koff in test [1] of 0.0016 s⁻¹. For the same molecule, in test [2], the dissociation constant Kd is 40 nM.

B13: light chain library clone L208 (Fab, V domains shown)
VH: B1 VH with G109D
VL: B1 VL with D28Y, I51T
notes: See note of m8
The molecule B13 came in with a dissociation rate constant (koff) in test [3] of 0.00046 s⁻¹. The equilibrium dissociation constant (Kd) in test [4] is 11 nM.

B14: heavy chain library clone H225 (Fab, V domains shown)
VH: B1 VH with I34V, N35T, M50G, A62S, L63V, G109D
VL: B1 VL
notes: See note of m8
Consider B14, for which the koff in test [3] came to 0.00038 s⁻¹. Besides, the Kd in test [4] is 9.5 nM.

B15: 8L2-6D5 Fab with CDR H3 mutation Y100L (Fab, V domains shown)
VH: B1 VH with Y100L, G109D
VL: B1 VL
notes: See note of m8
Take B15: in test [1], the off-rate constant (koff) was 0.0012 s⁻¹. For the same molecule, the Kd in test [2] was 30 nM.

B16: 8L2-6D5 Fab with CDR H3 mutation S105T (Fab, V domains shown)
VH: B1 VH with S105T, G109D
VL: B1 VL
notes: See note of m8
On to B16, for which the koff in test [1] amounted to 0.00064 s⁻¹. In test [2], the Kd was 16 nM.

B17: 8L2-6D5 Fab with CDR L3 mutation Y96R (Fab, V domains shown)
VH: B1 VH with G109D
VL: B1 VL with Y96R
notes: See note of m8
In test [1], B17 came in with a dissociation rate constant (koff) of 0.0017 s⁻¹. Moreover, in test [2], the Kd was 42 nM.

B18: heavy chain library clone H18 (Fab, V domains shown)
VH: B1 VH with I34A, N35T, M50G, L63V, G109D
VL: B1 VL
notes: See note of m8
In test [3], B18 showed a dissociation rate constant (koff) of 0.00042 s⁻¹. In addition, the Kd in test [4] was 10.5 nM.

B19: light chain library clone L6 (Fab, V domains shown)
VH: B1 VH with G109D
VL: B1 VL with S26F, D28S, H32Q, I51A
notes: See note of m8
On to B19, for which the koff in test [3] came out at 0.00082 s⁻¹. In addition, the Kd in test [4] was 20 nM.

B20: light chain library clone L97 (Fab, V domains shown)
VH: B1 VH with G109D
VL: B1 VL with D28S, H32Q, I51V
notes: See note of m8
Take B20: the koff in test [3] came out at 0.00056 s⁻¹. For the same molecule, the Kd in test [4] was 14 nM.

B21: 8L2-6D5 Fab with CDR H3 mutation Y107F (Fab, V domains shown)
VH: B1 VH with Y107F, G109D
VL: B1 VL
notes: See note of m8
For the molecule B21, in test [1], the koff worked out at 0.0014 s⁻¹. Besides, the dissociation constant Kd in test [2] is 35 nM.

B22: 8L2-6D5 Fab with CDR H3 mutation Y106T (Fab, V domains shown)
VH: B1 VH with Y106T, G109D
VL: B1 VL
notes: See note of m8
As for B22, the dissociation rate constant (koff) in test [1] was determined as 0.002 s⁻¹. The Kd in test [2] is 50 nM.

B23: 8L2-6D5 Fab with CDR H3 mutation Y106M (Fab, V domains shown)
VH: B1 VH with Y106M, G109D
VL: B1 VL
notes: See note of m8
In the case of B23, the koff in test [1] came to 0.0027 s⁻¹. In test [2], the Kd is 67 nM.

B24: 8L2-6D5 Fab with CDR H3 mutation S105A (Fab, V domains shown)
VH: B1 VH with S105A, G109D
VL: B1 VL
notes: See note of m8
Consider B24, for which, in test [1], the koff was found to be 0.00051 s⁻¹. Moreover, in test [2], the Kd was 13 nM.

B25: 8L2-6D5 Fab with CDR H3 mutation T104S (Fab, V domains shown)
VH: B1 VH with T104S, G109D
VL: B1 VL
notes: See note of m8; also called T1045 (so in the source)
In turn, B25 displayed a koff in test [1] of 0.0022 s⁻¹. Further, the dissociation constant Kd in test [2] was 55 nM.

B26: 8L2-6D5 Fab with CDR H3 mutation G103A (Fab, V domains shown)
VH: B1 VH with G103A, G109D
VL: B1 VL
notes: A103 is the E3 residue, so it is kept; See note of m8
As to B26, in test [1], the koff came to 0.00016 s⁻¹. Moreover, in test [2], the dissociation constant (Kd) is 4 nM.

B27: 8L2-6D5 Fab with CDR H3 mutation Y110K (Fab, V domains shown)
VH: B1 VH with G109D, Y110K
VL: B1 VL
notes: See note of m8
B27 registered a dissociation rate constant (koff) in test [1] of 0.0014 s⁻¹. In addition, the Kd in test [2] is 35 nM.

B28: heavy chain library clone H222 (Fab, V domains shown)
VH: B1 VH with I34V, N35T, M50G, L63V, G109D
VL: B1 VL
notes: See note of m8
Take B28: the koff in test [3] stood at 0.00038 s⁻¹. Also, the Kd in test [4] was 9.5 nM.

B29: light chain library clone L81 (Fab, V domains shown)
VH: B1 VH with G109D
VL: B1 VL with S26F, D28A, H32Q, S56T
notes: See note of m8
As to B29, the koff in test [3] is 0.00074 s⁻¹. Besides, the dissociation constant Kd in test [4] is 18 nM.

B30: 8L2-6D5 Fab with CDR L3 mutation S91E (Fab, V domains shown)
VH: B1 VH with G109D
VL: B1 VL with S91E
notes: E91 is the E3 residue, so it is kept; See note of m8
Molecule B30 showed a koff in test [1] of 0.00025 s⁻¹. Besides, the Kd in test [2] was 6 nM.

B31: 8L2-6D5 Fab with CDR H3 mutation D109N (Fab, V domains shown)
VH: B1 VH with G109N
VL: B1 VL
notes: See note of m8
In test [1], B31 registered a koff of 0.0015 s⁻¹. Also, in test [2], the Kd is 37 nM.

B32: heavy chain library clone H19 (Fab, V domains shown)
VH: B1 VH with I34L, M50I, L63V, G109D
VL: B1 VL
notes: See note of m8
In test [3], B32 returned a koff of 0.00024 s⁻¹. In addition, in test [4], the Kd is 6 nM.

B33: 8L2-6D5 Fab with CDR H3 mutation Y110T (Fab, V domains shown)
VH: B1 VH with G109D, Y110T
VL: B1 VL
notes: See note of m8
With B33, the koff in test [1] amounted to 0.0017 s⁻¹. In test [2], the Kd is 42 nM.

A word on the koff: it is the first-order rate constant of dissociation. Read a high koff as fast dissociation. Usually Kd stands for the free concentration of one partner at which half of the binding sites on the other are occupied at equilibrium, for simple one-to-one binding.
